Assay results reported in article PMC7716884.

Molecular target: insulin lispro
Experiment: SEC-MALS

stoichiometry N: 6
Substance: insulin lispro (ligand)
